Experimental data taken from patent US8927207B2, “miRNAs as therapeutic targets in cancer” (Research Foundation of State University of New York, priority 2008, dated 2015).

Assays:
Bax = assay: Western immunoblot of cell cycle control genes, HCT-116 (wt-p53); format: cell-based, human; conditions: 48 hours after transfection
Method: (§1) miR-192 expression is dependent on p53. To further analyze the cell cycle control genes involved in miR-192 overexpression, a number of cell cycle control genes were analyzed (p53, p21, Bax, E2F3, Rb). HCT-116 (wt-p53) cells (FIG. 6A) and RKO (wt-p53) cells (FIG. 6B), as described above (see Example 3), were transfected with non-specific miR (FIG. 6A, lane 2; and FIG. 6B, lane 1), DHFR siRNA (FIG. 6A, lane 3; and FIG. 6B, lane 2) and miR-192 (FIG. 6A, lane 4; and FIG. 6B, lane 3) according to the procedure discussed above (see Examples 1 and 2). Non-transfected HCT-116 (wt-p53) was used as a negative control (FIG. 6A, lane 1). Alpha-tubulin was used as a protein loading control.

p21 = assay: as above; format: cell-based, human; conditions: 48 hours after transfection
Method: as §1

p53 [1] = assay: as above; format: cell-based, human; conditions: 48 hours after transfection
Method: as §1

HCT-116 (wt-p53) cells = assay: WST-1 cellular proliferation after miR-192 transfection; format: cell-based, human; conditions: overexpression vs non-specific miR, n=3
Method: (§2) miR-192 inhibits cell proliferation of HCT-116 (wt-p53), RKO (wt-p53) and HT-29 (mut-p53) colon cancer cell lines. To assess the functional significance of miR-192, the impact of miR-192 on cellular proliferation was evaluated using HCT-116 (wt-p53), HCT-116 (null-p53), RKO (wt-p53) and HT-29 (mut-p53) colon cancer cell lines. The human colon cancer cell lines HCT-116 (wt-p53) and HCT-116 (null-p53) were provided by Prof Bert Vogelstein (The Johns Hopkins University) and were maintained in McCoy's 5A medium (Life Technologies). The other two human colon cancer cell lines, RKO (wt-p53) and HT-29 (mut-p53), were obtained from the American Type Culture Collection. The HT-29 (mut-p53) cell line has a missense mutation in codon 273 of p53 resulting in an Argto-His substitution. RKO (wt-p53) and HT-29 (mut-p53) cells were maintained in Eagle's MEM and Iscove's Modified Dulbecco's Medium at the American Type Culture Collection, respectively. All media were supplemented with 10% dialyzed fetal bovine serum (Hyclone Laboratories). All cell lines were grown at 37° C. in a humidified incubator with 5% CO2. The cell lines were transfected as described above (see Examples 1 and 2).
(§3) The cellular proliferation was evaluated as follows. HCT-116 (wt-p53) (FIG. 4A), HCT-116 (null-p53) (FIG. 4C), RKO (wt-p53) (FIG. 4B), and HT-29 cells (FIG. 4D) were plated in 96-well plates in triplicate at 1×10^3 cells per well after transfection with miR-192 precursor (illustrated as—Δ—) or non-specific control miRNA (illustrated as—□—). Cells were cultured for 24, 48, 72, or 96 hours. The absorbance at 450 and 630 nm was measured after incubation with 10 μl of WST-1 for 2 hours. A non-specific miR was used as a negative control.

HT-29 (mut-p53) cells = assay: as above; format: cell-based, human; conditions: HT-29, n=3
Method: as §2, §3

HCT-116 (null-p53) cells = assay: as above; format: cell-based, human; conditions: n=3
Method: as §2, §3

RKO (wt-p53) cells = assay: as above; format: cell-based, human; conditions: n=3
Method: as §2, §3

E2F3 = assay: Western immunoblot of E2F3, HCT-116 (wt-p53); format: cell-based, human
Method: The expression of miR-192 on the expression of E2F3 and Rb in HCT-116 (wt-p53) cells was also analyzed. In these experiments, HVT-116 (wt-p53) cells, as described above (see Example 3) were transfected with non-specific miR (FIG. 7, lane 2), DHFR siRNA (FIG. 7, lane 3) or miR-192 (FIG. 7, lane 4) according to the procedure described above (see Examples 1 and 2). One HCT-116 (wt-p53) sample was not transfected, and used as a negative control (FIG. 7, lane 1). Western immunoblot analysis was performed according to the procedure described above (see Example 5), except that rabbit anti-E2F-3 polyclonal antibody (1:1000, C-18) (Santa Cruz Biotechnology) was used.

p53 [2] = assay: western immunoblot of p53 in HCT-116 (wt-p53) and U-2 OS cells; format: cell-based; conditions: both HCT-116 (wt-p53) and U-2 OS cells, 48 h after transfection
From the text: miR-215 increases the expression of cell cycle control genes p53 and p21. p53 and p21, a downstream target of the p53 pathway of growth control, are reported to block cells at G2 checkpoint mainly through inhibiting activity of Cdc2, the cyclin-dependent kinase that normally drives cells into mitosis, which is the ultimate target of pathways that mediate rapid arrest in G2 in response to DNA damage. To further analyze the mechanism of cell proliferation inhibition by miR-215, we transfected miR-215 precursor into HCT-116 (wt-p53) and U-2 OS cells, and evaluated the levels of cell cycle control genes p53 and p21 by western immunoblot analysis.

B1: miR-192: microRNA miR-192 (SEQ ID NO:1), transfected into cells as miR-192 precursor (Ambion) (nucleic acid)
chain: GCCGAGACCGAGUGCACAGGGCUCUGACCUAUGAAUUGACAGCCAGUGCUCUCGUCUCCCCUCUGGCUGCCAAUUCCAUAGGUCACAGGUAUGUUCGCCUCAAUGCCAGC
modifications: delivered as precursor, further chemistry not given here
expression of Bax (Bax): not altered
increase in expression of p21 (p21): 10 fold
increase in expression of the p53 protein (p53 [1]): over 10 fold
suppression of cellular proliferation (HCT-116 (wt-p53) cells): over 55%
suppression of cellular proliferation (HT-29 (mut-p53) cells): 24%
suppression of cellular proliferation (HCT-116 (null-p53) cells): 15%
suppression of cellular proliferation (RKO (wt-p53) cells): 48%
expression of E2F3 (E2F3): decreased expression
p53 protein level (p53 [2]): significant increase
